Data reported in paper PMC6296734, “The CbrB Regulon: Promoter dissection reveals novel insights into the CbrAB expression network in Pseudomonas putida”.
Residue numbers refer to the chain shown, from its start.

T1: CbrB (Pseudomonas putida, UniProt A0ABM7EKZ2 1-480)
T1 sequence: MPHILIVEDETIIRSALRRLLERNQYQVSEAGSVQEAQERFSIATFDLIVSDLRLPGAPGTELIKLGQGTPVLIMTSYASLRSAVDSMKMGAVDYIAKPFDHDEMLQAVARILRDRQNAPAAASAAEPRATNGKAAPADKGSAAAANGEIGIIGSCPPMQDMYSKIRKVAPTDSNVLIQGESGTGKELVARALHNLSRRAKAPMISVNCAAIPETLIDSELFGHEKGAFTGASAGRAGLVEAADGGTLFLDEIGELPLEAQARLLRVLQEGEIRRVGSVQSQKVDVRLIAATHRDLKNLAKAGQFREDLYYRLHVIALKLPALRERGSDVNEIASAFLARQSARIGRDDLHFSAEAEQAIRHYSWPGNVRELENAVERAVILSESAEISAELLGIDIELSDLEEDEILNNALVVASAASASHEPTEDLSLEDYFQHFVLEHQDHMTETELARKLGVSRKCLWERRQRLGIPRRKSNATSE

B1: PcrcY wt 72 bp (dsDNA)
DNA 1: TTGTGTGGGTGAAGTGTTACCTCCCGCACATTTCACAGCAAAAAATCGGGTAACAGGGAAACAAATCGGCAGAA
DNA 2: TTTTCTGCCGATTTGTTTCCCTGTTACCCGATTTTTTGCTGTGAAATGTGCGGGAGGTAACACTTCACCCACAC
B2: PcrcY F1 mutant (dsDNA)
DNA 1: B1 DNA 1 with T15G, G16A, T17C, A19C, C20T
DNA 2: B1 DNA 2 with G57A, T58G, A60G, C61T, A62C
B3: PcrcY R2 mutant (dsDNA)
DNA 1: B1 DNA 1 with G58T, A59C, A60T, A61C, C62A, A63T
DNA 2: B1 DNA 2 with T14A, G15T, T16G, T17A, T18G, C19A
B4: PcrcY R' mutant (dsDNA)
DNA 1: B1 DNA 1 with G50T, T51A, A52C, A53C, C54G, A55T
DNA 2: B1 DNA 2 with T22A, G23C, T24G, T25G, A26T, C27A
B5: PcrcZ wt 72 bp (dsDNA)
DNA 1: TTCCCGTAAAAATCTGTTACCCAAGCTTTCCGCCGTAACAGTCCCCGAGGCGTACGGTAACGAAATTGCGACAT
DNA 2: TTATGTCGCAATTTCGTTACCGTACGCCTCGGGGACTGTTACGGCGGAAAGCTTGGGTAACAGATTTTTACGGG
B6: PcrcZ R1 mutant (dsDNA)
DNA 1: B5 DNA 1 with G35T, T36G, A37C, A38T, C39A, A40C
DNA 2: TTATGTCGCAATTTCGTTACCGTACGCCTCGGGGACGTAGCAGGCGGAAAGCTTGGGTAACAGATTTTTACGG
B7: PcrcZ F1 mutant (dsDNA)
DNA 1: B5 DNA 1 with T15G, G16A, T17C, A19C, C20T
DNA 2: B5 DNA 2 with G57A, T58G, A60G, C61T, A62C
B8: PcrcZ R2 mutant (dsDNA)
DNA 1: B5 DNA 1 with G57T, T58A, A59C, A60C, C61G, G62T
DNA 2: B5 DNA 2 with C15A, G16C, T17G, T18G, A19T, C20A

Assays:
[1] = target: T1, CbrB; assay: EMSA; EMSA at room temperature; crcZ/crcY (5 nM): 35 mM Tris-acetate pH 7.9, 70 mM KAc, 20 mM NH4Ac, 2 mM MgAc2, 1 mM CaCl2, 1 mM DTT, 5% glycerol; others (1.5 nM) and footprint: 50 mM Tris-HCl pH 7.4, 50 mM KCl, 10 mM MgCl2, 0.1 mM EDTA, 1 mM DTT; plus 100 ng/ul salmon sperm DNA, 250 ng/ul BSA; conditions: protein: recombinant, tags: N-terminal His tag (pET-14b derived pMPO1229), label: 32P-dATP Klenow fill-in
[2] = target: T1, CbrB; assay: EMSA; not significantly affected; EMSA at room temperature; crcZ/crcY (5 nM): 35 mM Tris-acetate pH 7.9, 70 mM KAc, 20 mM NH4Ac, 2 mM MgAc2, 1 mM CaCl2, 1 mM DTT, 5% glycerol; others (1.5 nM) and footprint: 50 mM Tris-HCl pH 7.4, 50 mM KCl, 10 mM MgCl2, 0.1 mM EDTA, 1 mM DTT; plus 100 ng/ul salmon sperm DNA, 250 ng/ul BSA; conditions: protein: recombinant; tags: N-terminal His tag (pET-14b derived pMPO1229); label: 32P-dATP Klenow fill-in; 5' overhang 2 nt at both ends before fill-in
[3] = 5' overhang 2 nt at both ends before fill-in

| Binder | binding result [1, 3] | further results |
| --- | --- | --- |
| B1 | binds |  |
| B2 | no binding |  |
| B3 |  | binding result [2]: binds |
| B4 |  | binding result [2]: binds |
| B5 | binds |  |
| B6 |  | binding result ([1]; 5' overhang 2 nt (one end 3 nt, reverse strand printed one G shorter) before fill-in): no binding |
| B7 | no binding |  |
| B8 | no binding |  |
